Laboratory results: publication PMC11500471 (Protein Science : A Publication of the Protein Society, 2024)
Numbering of substitutions follows the chain as printed. Names may count otherwise. “And” between values parts separate entries of the source, which are not always exact repeats. Equal entries are not always repeated. Where two headings read alike, the source gives them in different places.

B1: GRPEL2, human, recombinant, without mitochondrial targeting sequence, His tag cleaved at the TEV site (natural protein)
chain: STATQRTAGEDCRSEDPPDELGPPLAERALRVKAVKLEKEVQDLTVRYQRAIADCENIRRRTQRCVEDAKIFGIQSFCKDLVEVADILEKTTECISEESEPEDQKLTLEKVFRGLLLLEAKLKSVFAKHGLEKLTPIGDKYDPHEHELICHVPAGVGVQPGTVALVRQDGYKLHGRTIRLARVEVAVESQRRL
B2: GRPEL2-C87A, human, recombinant, without mitochondrial targeting sequence, His tag kept (natural protein, UniProt Q8TAA5 33-225, looked up)
chain: B1 chain with C55A
B3: GRPEL2-C97A, human, recombinant, without mitochondrial targeting sequence, His tag kept (natural protein, UniProt Q8TAA5 33-225, looked up)
chain: B1 chain with C65A

How the values were obtained:
[1] = biological target: GRPEL1, human, recombinant, without mitochondrial targeting sequence, His tag kept (human) (UniProt Q9HAV7); assay: SEC-MALS
[2] = biological target: mitochondrial HSP70 (mtHSP70), human, recombinant, His-tagged (human) (UniProt P38646); assay: SEC-MALS
[3] = biological target: GRPEL2, human, recombinant, without mitochondrial targeting sequence, His tag kept (human) (UniProt Q8TAA5); assay: SEC-MALS
[4] = biological target: mitochondrial HSP70 (mtHSP70), human, recombinant, His-tagged (human) (UniProt P38646); assay: MST
[5] = biological target: mitochondrial HSP70 (mtHSP70), human, recombinant, His-tagged (human) (UniProt P38646); assay: MST; remark: listed apart in the source
[6] = biological target: mitochondrial HSP70 (mtHSP70), human, recombinant, His-tagged (human) (UniProt P38646); assay: MST; remark: listed apart in the source
[7] = biological target: the molecule itself; assay: SEC-MALS

Row | Molecule | Kd [5] [nM] | Kd [6] [nM] | stoichiometry N [7] | also measured
1 | GRPEL1, human, recombinant, without mitochondrial targeting sequence, His tag kept (from UniProt Q9HAV7 28-217) (natural protein) | – | – | – | stoichiometry N [1]: 2 and 4; stoichiometry N (GRPEL1 per mtHSP70 (2:1 complex)) [2]: 2; stoichiometry N (GRPEL1 per mtHSP70 (2:2 complex)) [2]: 1
2 | GRPEL2, human, recombinant, without mitochondrial targeting sequence, His tag kept (from UniProt Q8TAA5 33-225) (natural protein) | – | – | – | stoichiometry N [3]: 2 and 4
3 | B1 | 373 | 942 | – | Kd [4]: 152 nM
4 | B2 | 203 | 204 | 2 and 4 | –
5 | B3 | 457 | – | 2 and 4 | –
